Experimental data published in PMC3094755, “The DNA-Binding Domain of Human PARP-1 Interacts with DNA Single-Strand Breaks as a Monomer through Its Second Zinc Finger”.

Assays:
[1] = molecular target: T1, PARP-1 F1+F2 (24-kDa DBD) (Homo sapiens, UniProt P09874 1-214); assay: EMSA; 400 nM DNA; FA: 50 mM Tris-HCl pH 7, 150 uM ZnSO4, 4 mM DTT, 0-200 mM NaCl, 25 C, 10 nM DNA (mutants 25 nM DNA, 25 mM NaCl); EMSA: 50 mM Tris-HCl pH 7.4, 150 uM ZnSO4, 4 mM DTT, 10% glycerol, RT incubation, gel at 4 C; NMR complexes: 50 mM Tris pH 7.0, 150 uM ZnSO4, 4 mM DTT, 37 C; conditions: protein: recombinant; single-chain dumbbell, 18 bp with central nick, two tetraloops
[2] = molecular target: PARP-1 F2 (Homo sapiens, UniProt P09874 103-214); assay: EMSA; 400 nM DNA; slightly less than F1+F2; FA: 50 mM Tris-HCl pH 7, 150 uM ZnSO4, 4 mM DTT, 0-200 mM NaCl, 25 C, 10 nM DNA (mutants 25 nM DNA, 25 mM NaCl); EMSA: 50 mM Tris-HCl pH 7.4, 150 uM ZnSO4, 4 mM DTT, 10% glycerol, RT incubation, gel at 4 C; NMR complexes: 50 mM Tris pH 7.0, 150 uM ZnSO4, 4 mM DTT, 37 C; conditions: protein: recombinant; single-chain dumbbell with 1-nt gap, two tetraloops
[3] = molecular target: T1, PARP-1 F1+F2 (24-kDa DBD); assay: EMSA; 400 nM DNA; FA: 50 mM Tris-HCl pH 7, 150 uM ZnSO4, 4 mM DTT, 0-200 mM NaCl, 25 C, 10 nM DNA (mutants 25 nM DNA, 25 mM NaCl); EMSA: 50 mM Tris-HCl pH 7.4, 150 uM ZnSO4, 4 mM DTT, 10% glycerol, RT incubation, gel at 4 C; NMR complexes: 50 mM Tris pH 7.0, 150 uM ZnSO4, 4 mM DTT, 37 C; conditions: protein: recombinant; single-chain dumbbell with 1-nt gap, two tetraloops
[4] = molecular target: PARP-1 F2 K141I/K142I (Homo sapiens, UniProt P09874 103-214, K141I;K142I); assay: as above; conditions: protein: recombinant; single-chain dumbbell with 1-nt gap, two tetraloops
[5] = molecular target: PARP-1 F2 R138I (Homo sapiens, UniProt P09874 103-214, R138I); assay: as above; conditions: protein: recombinant; single-chain dumbbell with 1-nt gap, two tetraloops
[6] = molecular target: PARP-1 F2 K131I/G135D (Homo sapiens, UniProt P09874 103-214, K131I;G135D); assay: as above; conditions: protein: recombinant; single-chain dumbbell with 1-nt gap, two tetraloops
[7] = molecular target: T1, PARP-1 F1+F2 (24-kDa DBD); assay: NMR; 1:1 complex; FA: 50 mM Tris-HCl pH 7, 150 uM ZnSO4, 4 mM DTT, 0-200 mM NaCl, 25 C, 10 nM DNA (mutants 25 nM DNA, 25 mM NaCl); EMSA: 50 mM Tris-HCl pH 7.4, 150 uM ZnSO4, 4 mM DTT, 10% glycerol, RT incubation, gel at 4 C; NMR complexes: 50 mM Tris pH 7.0, 150 uM ZnSO4, 4 mM DTT, 37 C; conditions: protein: recombinant; single-chain dumbbell with 1-nt gap, two tetraloops
[8] = molecular target: T1, PARP-1 F1+F2 (24-kDa DBD); assay: fluorescence anisotropy; 50; 50 mM Tris-HCl pH 7.0, 150 uM ZnSO4, 4 mM DTT, 25 C; NaCl 0-200 mM (T2, as in cof; 10 nM DNA) or 25 mM (T3 mutants; 25 nM DNA); conditions: protein: recombinant, label: fluorescein-dT at T8 and T30, two tetraloops
[9] = molecular target: T1, PARP-1 F1+F2 (24-kDa DBD); assay: fluorescence anisotropy; 75; 50 mM Tris-HCl pH 7.0, 150 uM ZnSO4, 4 mM DTT, 25 C; NaCl 0-200 mM (T2, as in cof; 10 nM DNA) or 25 mM (T3 mutants; 25 nM DNA); conditions: protein: recombinant, label: fluorescein-dT at T8 and T30, two tetraloops
[10] = molecular target: T1, PARP-1 F1+F2 (24-kDa DBD); assay: fluorescence anisotropy; 200; 50 mM Tris-HCl pH 7.0, 150 uM ZnSO4, 4 mM DTT, 25 C; NaCl 0-200 mM (T2, as in cof; 10 nM DNA) or 25 mM (T3 mutants; 25 nM DNA); conditions: protein: recombinant; label: fluorescein-dT at T8 and T30; single-chain dumbbell with central nick, two tetraloops
[11] = molecular target: T1, PARP-1 F1+F2 (24-kDa DBD); assay: fluorescence anisotropy; 100; 50 mM Tris-HCl pH 7.0, 150 uM ZnSO4, 4 mM DTT, 25 C; NaCl 0-200 mM (T2, as in cof; 10 nM DNA) or 25 mM (T3 mutants; 25 nM DNA); conditions: protein: recombinant, label: fluorescein-dT at T8 and T30, two tetraloops
[12] = molecular target: T1, PARP-1 F1+F2 (24-kDa DBD); assay: fluorescence anisotropy; 25; 50 mM Tris-HCl pH 7.0, 150 uM ZnSO4, 4 mM DTT, 25 C; NaCl 0-200 mM (T2, as in cof; 10 nM DNA) or 25 mM (T3 mutants; 25 nM DNA); conditions: protein: recombinant, label: fluorescein-dT at T8 and T30, two tetraloops
[13] = molecular target: T1, PARP-1 F1+F2 (24-kDa DBD); assay: fluorescence anisotropy; 0; 50 mM Tris-HCl pH 7.0, 150 uM ZnSO4, 4 mM DTT, 25 C; NaCl 0-200 mM (T2, as in cof; 10 nM DNA) or 25 mM (T3 mutants; 25 nM DNA); conditions: protein: recombinant, label: fluorescein-dT at T8 and T30, two tetraloops
[14] = molecular target: T1, PARP-1 F1+F2 (24-kDa DBD); assay: fluorescence anisotropy; 150; 50 mM Tris-HCl pH 7.0, 150 uM ZnSO4, 4 mM DTT, 25 C; NaCl 0-200 mM (T2, as in cof; 10 nM DNA) or 25 mM (T3 mutants; 25 nM DNA); conditions: protein: recombinant; label: fluorescein-dT at T8 and T30; single-chain dumbbell with central nick, two tetraloops
[15] = single-chain dumbbell with central nick
[16] = circular closed dumbbell, no nick

T1 sequence (P09874 1-214): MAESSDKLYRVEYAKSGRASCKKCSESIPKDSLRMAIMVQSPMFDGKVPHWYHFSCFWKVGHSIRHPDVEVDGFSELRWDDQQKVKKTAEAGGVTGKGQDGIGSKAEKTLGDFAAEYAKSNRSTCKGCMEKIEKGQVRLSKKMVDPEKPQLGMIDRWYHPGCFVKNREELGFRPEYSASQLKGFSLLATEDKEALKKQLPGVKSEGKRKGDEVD
Sequence of PARP-1 F2 K141I/K142I (P09874 103-214 K141I/K142I): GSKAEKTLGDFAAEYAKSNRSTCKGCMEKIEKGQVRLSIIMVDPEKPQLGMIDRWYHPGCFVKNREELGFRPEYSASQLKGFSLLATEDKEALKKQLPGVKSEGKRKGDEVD
Sequence of PARP-1 F2 K131I/G135D (P09874 103-214 K131I/G135D): as the sequence (P09874 103-214 K141I/K142I) above, with K29I, G33D, I39K, I40K counted along it
Sequence of PARP-1 F2 (P09874 103-214): as the sequence (P09874 103-214 K141I/K142I) above, with I39K, I40K counted along it
Sequence of PARP-1 F2 R138I (P09874 103-214 R138I): as the sequence (P09874 103-214 K141I/K142I) above, with R36I, I39K, I40K counted along it

Binder: CGGTCGATCGTAAGATCGACCGGCGCTGGAGCTTGCTCCAGCGC (structured_DNA, 5'-phosphate) [44-nt nicked dumbbell, 5'-phosphate]
- binding signal [1]: ~2 fold weaker than gapped ligand

Binder: CGGTCGATCGTAAGATCGACCGTGCGCTGGAGCTTGCTCCAGCGC (structured_DNA, 5'-phosphate) [45-nt gapped dumbbell, 5'-phosphate]
- binding result [2]: binds
- binding result [3]: binds
- binding result [4]: no binding
- binding result [5]: no binding
- binding result [6]: no binding

Binder: CGGTCGATCGTAAGATCGACCGTGCGCTGGAGCTTGCTCCAGCGC (structured_DNA, 3'-phosphate) [45-nt gapped dumbbell, 3'-phosphate]
- binding result [7]: binds

Binder: CGGTCGATCGTAAGATCGACCGTGCGCTGGAGCTTGCTCCAGCGC (structured_DNA, 5'-deoxyribose (printed as 5' ribose in text)) [45-nt gapped dumbbell, 5'-ribosylated]
- binding result [7]: binds

Binder: CGGTCGATCGTAAGATCGACCGCGGTCGATCGTAAGATCGACCG (structured_DNA, 5'-phosphate) [44-nt nicked symmetric dumbbell, 5'-phosphate, 2x fluorescein-dT]
- Kd [8, 15]: 56.1 nM
- Kd [9, 15]: 62.4 nM
- Kd [10]: 46.2 nM
- Kd [11, 15]: 56.9 nM
- Kd [12, 15]: 54.2 nM
- Kd [13, 15]: 48.6 nM
- Kd [14]: 52.4 nM

Binder: CGGTCGATCGTAAGATCGACCGCGGTCGATCGTAAGATCGACCG (structured_DNA, circular, nick sealed by T4 DNA ligase) [ligated (circular) symmetric 44-nt dumbbell, 2x fluorescein-dT]
- Kd [8, 16]: 166 nM
- Kd [9, 16]: 480 nM
- Kd [11, 16]: 1110 nM
- Kd [12, 16]: 134 nM
- Kd [13, 16]: 117 nM
